This passage reports percent of NuPODs occupied by results from publication PMC11100828.

This assay deals with human Nup153^CTD (C-terminal domain, aa 896-1485), MBP and SNAP-tag fusion protein (human). Briefly: negative-stain TEM, occupancy of NuPODs by capsids.

In the case of “HBV capsids assembled in vitro from wild type HBV core protein (HBc) (from UniProt P03146 1-183) (complex)”, the percent of NuPODs occupied by at least one capsid was 90%.
